Each block holds one substance with its values, some of them ahead of it.
Columns and labels:
αβ-tubulin heterodimer [1] = molecular target: αβ-tubulin heterodimer
αβ-tubulin heterodimer [2] = test: SEC-MALS; KW803 (Shodex) column, 20 mM Pipes pH 6.8, 10 μM AMPPNP; 30 μl at about 3 mg/ml tubulin–Kif2C–DARPin complexes, 0.5 ml/min
αβ-tubulin heterodimer [3] = molecular target: αβ-tubulin heterodimer; remark: listed apart in the source

microtubule depolymerase activity (turbidity, percent of wild-type Kif2C-(sN+M)) (αβ-tubulin heterodimer [1]): 5.7%
microtubule-stimulated ATPase, k cat; tubulin as Taxotere-stabilized microtubules (αβ-tubulin heterodimer [1]): 0.33 s⁻¹
Substance: Kif2C-(sN+M) R420S (from UniProt Q99661 216-598) (domain or fragment)

stoichiometry N (tubulin:construct) (αβ-tubulin heterodimer [2]): 1
Substance: Kif2C-(sN+M)-(G4S)3-DARPin (Kif2C-(sN+M) linked to the D1 DARPin by a (G4S)3 peptide) (from UniProt Q99661 216-598)

Second part, the substance before the results:

Substance: Kif2C-(sN+M) (short neck+motor construct of human Kif2C/MCAK) (from UniProt Q99661 216-598) (domain or fragment)
microtubule-stimulated ATPase, K mMT; tubulin as Taxotere-stabilized microtubules (αβ-tubulin heterodimer [1]): 1.1 µM

Substance: Kif2C-(sN+M) R510A (from UniProt Q99661 216-598) (domain or fragment)
microtubule-stimulated ATPase, K mMT; tubulin as Taxotere-stabilized microtubules (αβ-tubulin heterodimer [1]): 17 µM

Substance: Kif2C-(sN+M) R540A (from UniProt Q99661 216-598) (domain or fragment)
microtubule depolymerase activity (turbidity, percent of wild-type Kif2C-(sN+M)) (αβ-tubulin heterodimer [1]): 5.5%

Substance: Kif2C-(sN+M)-(G4S)4-GGS-DARPin (Kif2C-(sN+M) fused to the A-C2 DARPin) (from UniProt Q99661 216-598)
microtubule-stimulated ATPase, apparent K m (K mMT); tubulin as Taxotere-stabilized microtubules (αβ-tubulin heterodimer [3]): 20 µM
tubulin-stimulated ATPase, apparent Michaelis–Menten constant (αβ-tubulin heterodimer [3]): 0.5 µM
tubulin-stimulated ATPase, k cat (αβ-tubulin heterodimer [3]): 0.1 s⁻¹
